Source: patent US20180171001A1
Numbering of substitutions follows the chain as printed.

B1: γ52κ5 (antibody, V domains shown)
VH: QIHLVQSGTEVKKPGSSVTVSCKAYGVNTFGLYAVNWVRQAPGQSLEYIGQIWRWKSSASHHFRGRVLISAVDLTGSSPPISSLEIKNLTSDDTAVYFCTTTSTYDRWSGLHHDGVMAFSSWGQGTLISVSA
VL: DIQMTQSPSTLSASTGDTVRISCRASQSITGNWVAWYQQRPGKAPRLLIYRGAALLGGVPSRFRGSAAGTDFTLTIGNLQAEDFGTFYCQQYDTYPGTFGQGTKVEVKR
B2: 8ANC195 IgG (antibody, V domains shown)
VH: B1 VH with R107K
VL: DIQMTQSPSTLSASIGDTVRISCRASQSITGNWVAWYQQRPGKAPRLLIYRGAALLGGVPSRFSGSAAGTDFTLTIGNLQAEDFGTFYCQQYDTYPGTFGQGTKVEV
B3: γ44κ61 (antibody, V domains shown)
VH: B1 VH with G26E, L89V, Y105H, R107K
VL: B1 VL with T15I, Q38H, R64S
B4: γ46κ61 (antibody, V domains shown)
VH: B1 VH with S45G, L89V, R107K, M117V
VL: B1 VL with T15I, Q38H, R64S
B5: γ59κ61 (antibody, V domains shown)
VH: B1 VH with S45G, L89V, R107E, G110D
VL: B1 VL with T15I, Q38H, R64S
B6: γ52κ61 (antibody, V domains shown)
VH: B1 VH
VL: B1 VL with T15I, Q38H, R64S

target: Tier 2 15 virus panel; assay: cell-based or functional assay

Compared with B1, B2 is 5.1-fold higher in mean neutralization IC50: 0.45 mg/L for the first, 2.3 mg/L for the second.

Binder B1 has a potency against 8ANC195 of 5 fold.

target: Env of HIV-1 strain X1254_c3 (HIV-1); assay: cell-based or functional assay

Going from B1 to B3, the neutralization IC50 rises from 0.504 mg/L to > 15 mg/L.

B4 and B5 are within 1.5-fold of each other in neutralization IC50: 4.46 mg/L for the first, 4.01 mg/L for the second.

Compared with B6, B2 is 1.7-fold lower in neutralization IC50: 2.57 mg/L for the first, 1.52 mg/L for the second.

target: Env of HIV-1 strain ZM53M.PB12 (HIV-1); assay: cell-based or functional assay

Going from B1 to B3, the neutralization IC50 rises from 3.13 mg/L to > 15 mg/L.

Going from B4 to B5, the neutralization IC50 falls from 27.5 mg/L to 13.3 mg/L (2.1-fold).

B6 and B2 are within 1.5-fold of each other in neutralization IC50: 8.44 mg/L for the first, 9.63 mg/L for the second.

target: Env of HIV-1 strain 251-18 (HIV-1); assay: cell-based or functional assay

First: B1
Second: B3
The neutralization IC50 of the first is lower: 0.048 mg/L for the first, > 15 mg/L for the second.

B4 and B5 are within 1.5-fold of each other in neutralization IC50: 1.84 mg/L for the first, 1.4 mg/L for the second.

B6 and B2 are within 1.5-fold of each other in neutralization IC50: 0.273 mg/L for the first, 0.284 mg/L for the second.

target: Env of HIV-1 strain 250-4 (HIV-1); assay: cell-based or functional assay

B1 and B3 cannot be ordered by neutralization IC50: > 15 mg/L for the first, > 15 mg/L for the second.

B4 and B5 cannot be ordered by neutralization IC50: > 15 mg/L for the first, > 15 mg/L for the second.

B6 and B2 cannot be ordered by neutralization IC50: > 15 mg/L for the first, > 50 mg/L for the second.

target: Env of HIV-1 strain 231965.c1 (HIV-1); assay: cell-based or functional assay

First: B1
Second: B3
The neutralization IC50 of the first is lower: 0.094 mg/L for the first, > 15 mg/L for the second.

Going from B4 to B5, the neutralization IC50 rises from 1.58 mg/L to > 15 mg/L.

B6 and B2 are within 1.5-fold of each other in neutralization IC50: 0.516 mg/L for the first, 0.514 mg/L for the second.

target: Env of HIV-1 strain 3415.v1.c1 (HIV-1); assay: cell-based or functional assay

Compared with B1, B3 is higher in neutralization IC50: 0.12 mg/L for the first, > 15 mg/L for the second.

B4 and B5 cannot be ordered by neutralization IC50: > 15 mg/L for the first, > 15 mg/L for the second.

Going from B6 to B2, the neutralization IC50 rises from 0.681 mg/L to 2.4 mg/L (3.5-fold).

target: Env of HIV-1 strain ZM109F.PB4 (HIV-1); assay: cell-based or functional assay

B1 and B3 cannot be ordered by neutralization IC50: > 15 mg/L for the first, > 15 mg/L for the second.

B4 and B5 cannot be ordered by neutralization IC50: > 15 mg/L for the first, > 15 mg/L for the second.

B6 and B2 cannot be ordered by neutralization IC50: > 15 mg/L for the first, > 30 mg/L for the second.

target: Env of HIV-1 strain YU2.DG (HIV-1); assay: cell-based or functional assay

Going from B1 to B3, the neutralization IC50 rises from 0.065 mg/L to > 15 mg/L.

First: B4
Second: B5
The neutralization IC50 of the first is 4.7-fold lower: 0.918 mg/L for the first, 4.33 mg/L for the second.

Compared with B6, B2 is 1.9-fold higher in neutralization IC50: 0.408 mg/L for the first, 0.79 mg/L for the second.

target: Env of HIV-1 strain 3365.v2.c20 (HIV-1); assay: cell-based or functional assay

B1 and B3 cannot be ordered by neutralization IC50: > 15 mg/L for the first, > 15 mg/L for the second.

B4 and B5 cannot be ordered by neutralization IC50: > 15 mg/L for the first, > 15 mg/L for the second.

B6 and B2 cannot be ordered by neutralization IC50: > 15 mg/L for the first, > 30 mg/L for the second.

target: Env of HIV-1 strain PVO.4 (HIV-1); assay: cell-based or functional assay

First: B1
Second: B3
The neutralization IC50 of the first is lower: 0.019 mg/L for the first, > 15 mg/L for the second.

Going from B4 to B5, the neutralization IC50 rises from 0.244 mg/L to > 15 mg/L.

Going from B6 to B2, the neutralization IC50 rises from 0.078 mg/L to 0.52 mg/L (6.7-fold).

target: Env of HIV-1 strain REJO4541.67 (HIV-1); assay: cell-based or functional assay

First: B1
Second: B3
The neutralization IC50 of the first is lower: 0.035 mg/L for the first, > 15 mg/L for the second.

Going from B4 to B5, the neutralization IC50 rises from 0.378 mg/L to 1.33 mg/L (3.5-fold).

B6 and B2 are within 1.5-fold of each other in neutralization IC50: 0.115 mg/L for the first, 0.08 mg/L for the second.

target: Env of HIV-1 strain 3016.v5.c45 (HIV-1); assay: cell-based or functional assay

First: B1
Second: B3
The neutralization IC50 of the first is lower: 0.017 mg/L for the first, > 15 mg/L for the second.

First: B4
Second: B5
The neutralization IC50 of the first is lower: 0.383 mg/L for the first, > 15 mg/L for the second.

B6 and B2 are within 1.5-fold of each other in neutralization IC50: 0.182 mg/L for the first, 0.195 mg/L for the second.

target: Env of MuLV; assay: cell-based or functional assay

B3 and B4 cannot be ordered by neutralization IC50: > 15 mg/L for the first, > 15 mg/L for the second.

B5 and B6 cannot be ordered by neutralization IC50: > 15 mg/L for the first, > 15 mg/L for the second.

B2 was tested, and the neutralization IC50 was > 23 mg/L.

target: Env of HIV-1 strain H086.8 (HIV-1); assay: cell-based or functional assay

First: B1
Second: B3
The neutralization IC50 of the first is lower: 0.175 mg/L for the first, > 15 mg/L for the second.

Compared with B4, B5 is higher in neutralization IC50: 0.584 mg/L for the first, > 15 mg/L for the second.

Going from B6 to B2, the neutralization IC50 falls from 0.242 mg/L to 0.095 mg/L (2.5-fold).

target: Env of HIV-1 strain Du172.17 (HIV-1); assay: cell-based or functional assay

B3 and B4 cannot be ordered by neutralization IC50: > 15 mg/L for the first, 26.1 mg/L for the second.

Compared with B5, B6 is lower in neutralization IC50: > 15 mg/L for the first, 7.28 mg/L for the second.

B2 showed a neutralization IC50 of 10.8 mg/L.

target: Env of HIV-1 strain R1166.c1 (HIV-1); assay: cell-based or functional assay

Compared with B1, B3 is higher in neutralization IC50: 0.319 mg/L for the first, > 15 mg/L for the second.

Going from B4 to B5, the neutralization IC50 rises from 2.58 mg/L to 7.46 mg/L (2.9-fold).

Going from B6 to B2, the neutralization IC50 falls from 1.64 mg/L to 0.986 mg/L (1.7-fold).
